Results taken from patent US20160228506A1, “Compositions and Formulations for Prevention and Reduction of Tumorigenesis, Cancer Cell Proliferation and Invasion, and Methods of Production and Use Thereof in Cancer Treatment” (PRONUTRIA, INC., priority 2013, published 2016).
Like-named read-outs stand apart in the source and are kept apart here.

How the values were obtained:
Pancreatin = format: in vitro ADME, Porcine
Description: Control samples were protease-free.
Analyses were performed using an Agilent 1100 series system.

[1] = rat, in vivo
Description: A rat pharmacokinetic study with oral administration of native and modified forms of SEQID-00363 was performed as described herein. The indigestible marker Cobalt-EDTA was formulated at 50 mg/L in the dosed protein solutions to monitor differences in intestinal transit rate between treatment groups and individual rats. Following the final blood collection (at t=4 h) rats were euthanized and the terminal ileum (20 cm of small intestine prior to the cecum) and its contents (the digesta) were collected into a pre-weighed tube. The ileum was flushed with saline and pooled with the digesta. The pH of the digesta was adjusted to ˜3.0 with HCl in order to inactivate all enzymes. The ileum samples were placed into separate pre-weighed 15 mL conical tubes. All samples were flash frozen in liquid nitrogen, and stored at −80° C. until further analysis. Individual ileum and ileum content weights were calculated and recorded for each sample.
A sample of the digesta, which exists as a heterogenous solution containing insoluble particles, was used in the Coomassie Plus Protein Assay, as described herein, to determine protein concentration.

[2] = rat, in vivo, po
Description: The boavailability o native and modified forms (ie. deglycosylated and hydrolyzed) of SEQID-00363 was evaluated using the methods described in herein. Briefly, native and modified forms of SEQID-00363 were orally administered to intrajugular-cannulated rats and concentration of free amino acids in plasma samples collected over a 4 h period was determined by HPLC amino acid analysis.

[3] = simulated gi fluid
Description: (§1) In this experiment the nutritive polypeptide was exposed to a series of proteases that are active in the stomach (pepsin) and intestine (trypsin and chymotrypsin), and the presence of intact protein was measured over time. Specifically, the nutritive polypeptide was first treated at a concentration of 2 g/L with simulated gastric fluid (SGF) (0.03 M NaCl, titrated with HCl to pH 1.5 with a final pepsin:polypeptide ratio of 1:20 w/w) at 37° C. Time points were sampled from the reaction and quenched by addition of 0.2 M Na2CO3. […] Time points were sampled from the reaction and quenched by addition of Trypsin/Chymotrypsin Inhibitor (Sigma) solution until 240 min.
(§2) Time point samples were analyzed for intact protein by chip electrophoresis, polyacrylamide gel electrophoresis, or western blot. For chip electrophoresis (Labchip GX II), samples were analyzed using a HT Low MW Protein Express LabChip® Kit (following the manufacturer's protocol). A protein ladder was loaded every 12 samples for molecular weight determination (kDa) and quantification. For polyacrylamide gel electrophoresis, samples (1 μg) were separated on a NuPAGE® Novex® Bis-Tris Precast gel (Life Technologies) according to the manufacturer's protocol. The gel was stained using SimplyBlue™ SafeStain (Invitrogen) and imaged using a Chemidoc XRS+ (BioRad) or transferred onto nitrocellulose membranes using the iBlot® Dry Blotting System (Life Technologies) and iBlot® Western Detection Kit (Life Technologies) according to the manufacturer's protocol. Proteins were detected by blotting with Anti-His [C-term]-HRP antibody diluted 3:5000 in Blok™-PO Blocking Buffer using the SNAP I.d.® Protein Detection System (Millipore) according to the manufacturer's protocol. Blots were treated with Luminata Classico Western HRP Substrate (Millipore) according to the manufacturer's protocol and imaged using chemiluminescent detection on the Molecular Imager® Gel Doc™ XR+ System (Bio-Rad). Quantification of intact protein was determined by densitometry using ImageLab (BioRad). For all analysis methods the relative concentration of the polypeptide at each time point (if detected) was plotted overtime and fit to an exponential curve to calculate the intact half-life.
(§3) Specifically, the t=0 (enzyme-free control) and t=2 min samples from the SGF digest were analyzed for intact protein as described by chip electrophoresis, SDS-PAGE, western blot, and/or LC-MS/MS. Relative quantities of polypeptides at each time point were determined and the percentage of intact protein remaining at t=2 was determined. Intact half-life values determined using this method are reported as greater or less than 2 min to indicate more or less than 50% of the protein remained intact at t=2 min, respectively.

α-amylase = assay: Amylase activity assay on starch plates (halo); parameters: species or system Bacillus subtilis
Description: SEQID-00407 is an α-amylase in Bacillus subtilis that has the activity of breaking down polysaccharides, such as starch, into monosaccharides or disaccharides. […] If there is enzymatic activity, the secreted enzyme will breakdown the starch and upon staining by iodine, there will be a halo surrounding the Bacillus subtilis colonies. 1% starch plates were made by combining 25 g Luria Broth-Miller, 10 g starch, 15 g bacteriological agar, and 1 L water. 10 mM IPTG was added to the starch plates after the agar has solidified. Single colonies of Bacillus subtilis strains expressing the mutant polypeptides were inoculated in 5 ml LB at 37° C. for 4 hours and 50 μl of the liquid culture were spotted at the center for the starch plates. After 20 hours of growth and induced secretion, 10% iodine was added to the starch plates to stain for starch. When the wild-type enzyme is secreted, it creates a large halo around the cells. […] Table E37A quantifies the area of the halos relative to the area of the cells. […]
SEQID-00407 is an α-amylase in Bacillus subtilis that has the activity of breaking down polysaccharides, such as starch, into monosaccharides or disaccharides. […] Table E38E quantifies the area of the halos relative to the area of the cells.

[4] = Intact half-life during simulated gastric fluid (SGF) digestion; settings: SGF pH 1.5, pepsin:polypeptide 1:20 w/w, 37° C.; intact protein
Description: as §1, §2, §3

B1: Deglycosylated SEQID-00363: SEQID-00363 with mannose glycans reduced enzymatically by alpha mannosidase (protein)
chain: ATLDSWLSNEATVARTAILNNIGADGAWVSGADSGIVVASPSTDNPDYFYTWTRDSGLVLKTLVDLFRNGDTSLLSTIENYISAQAIVQGISNPSGDLSSGAGLGEPKFNVDETAYTGSWGRPQRDGPALRATAMIGFGQWLLDNGYTSTATDIVWPLVRNDLSYVAQYWNQTGYDLWEEVNGSSFFTIAVQHRALVEGSAFATAVGSSCSWCDSQAPEILCYLQSFWTGSFILANFDSSRSGKDANTLLGSIHTFDPEAACDDSTFQPCSPRALANHKEVVDSFRSIYTLNDGLSDSEAVAVGRYPEDTYYNGNPWFLCTLAAAEQLYDALYQWDKQGSLEVTDVSLDFFKALYSDAATGTYSSSSSTYSSIVDAVKTFADGFVSIVETHAASNGSMSEQYDKSDGEQLSARDLTWSYAALLTANNRRNSVVPASWGETSASSVPGTCAATSAIGTYSSVTVTSWPSIVATGGTTTTATPTGSGSVTSTSKTTATASKTSTSTSSTSCTTPTAVAVTFDLTATTTYGENIYLVGSISQLGDWETSDGIALSADKYTSSDPLWYVTVTLPAGESFEYKFIRIESDDSVEWESDPNREYTVPQACGTSTATVTDTWR
modifications: deglycosylated; Aspergillus niger
Free Leu (μM) at 120 min time point of Pancreatin digest (Pancreatin): 799.2 µM | total protein mass in digesta samples [1]: 7.7 mg | bioavailability of Leucine and EAAs versus native SEQID-00363 [2]: did not increase the bioavailability | bioavailability of Serine and Threonine versus native SEQID-00363 [2]: did increase the bioavailability | SGF Half-life (t½) [3]: 4.3 min

B2: SEQID-00690: engineered secreted variant of SEQID-00407 enriched in essential amino acids which retains enzymatic activity (protein, listed as Bacillus subtilis)
chain: ETANKSNELTAPSIKSGTILHAWNWSFNTLKHNMKDIHDAGYTAIQTSPINQVKEGNQGDKSMSNWYWLYQPTSYQIGNRYLGTEQEFKEMCAAAEEYGIKVIVDAVINHTTSDLVGVLSNEVKSIPNWTHGNTQIKNWSDRWDVTQNSLLGLYDWNTQNTQVQSYLKRFLDRALNDGADGFRFDAAKHIELPDDGSYGSQFWPNITRVVMEFQYGEILQDSASRDAAYANYMDVTASNYGHSIRSALKNRNLGVSNIVMYILRVSADKLVTWVESHDTYANDDEESTWMSDDDIRLGWAVIASRSGSTPLFFSRPEGGGNGVRFPGKSQIGDRGSALFEDQAITAVNRFHNVMAGLPKRLSNPNGNNQIFMNQRGSHGVVLANAGSSSVSINTATKLPDGRYDNKAGAGSFQVNDGKLTGTINARSVAVLYPDDIAKAPHVFLENYKTGVTHSFNDQLTITMRADANTTKAVYQINNGPETAFKDGDQFTIGKGDPFGKTYTIMLKGTNSDGVTRTEKYSFVKRDPASAKTIGYQNPNHWSQVNAYIYKHDGSRVIELTGSWPGKPMTKNADGIYTLTLPADTDTTNAKVIFNNGSAQVPGQNQPGFDYVLNGLYNDSGLSGSLPH
modifications: source: /note="strain 168"
Halo/Cell (α-amylase; area of halo relative to area of cells): 2.63 | Halo Area (in^2) (α-amylase; starch plate, iodine stain, 20 hours): 1.234 in^2 | SGF Half-life (t½) [4]: 4.4 min
